Literature values in article PMC12528258.
Like-named read-outs stand apart in the source and are kept apart here. Blank lines part the entries; values can stand above or below the substance they belong to.

How the values were obtained:
[1] = molecular target: H3K9me3 tail tail (Homo sapiens) (UniProt P68431)
[2] = molecular target: H3K9me3 tail tail (Homo sapiens) (UniProt P68431); remark: listed apart in the source
[3] = molecular target: H3K9me3 tail tail (Homo sapiens) (UniProt P68431); remark: listed apart in the source
[4] = molecular target: H3K9me3 tail tail (Homo sapiens) (UniProt P68431); remark: listed apart in the source

HP1α, sequence (P45973 whole entry): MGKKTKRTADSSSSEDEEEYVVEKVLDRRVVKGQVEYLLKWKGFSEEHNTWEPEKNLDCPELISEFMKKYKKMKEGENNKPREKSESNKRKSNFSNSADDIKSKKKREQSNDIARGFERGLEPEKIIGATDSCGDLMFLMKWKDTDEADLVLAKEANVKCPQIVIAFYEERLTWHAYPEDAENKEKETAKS
HP1γ, sequence (Q13185 2-183): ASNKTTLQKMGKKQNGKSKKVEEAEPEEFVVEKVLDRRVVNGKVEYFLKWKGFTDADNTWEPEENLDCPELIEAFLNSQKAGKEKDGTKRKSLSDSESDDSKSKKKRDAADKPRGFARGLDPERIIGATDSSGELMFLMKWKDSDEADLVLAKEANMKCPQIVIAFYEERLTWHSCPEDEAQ
HP1β, sequence (P83916 whole entry): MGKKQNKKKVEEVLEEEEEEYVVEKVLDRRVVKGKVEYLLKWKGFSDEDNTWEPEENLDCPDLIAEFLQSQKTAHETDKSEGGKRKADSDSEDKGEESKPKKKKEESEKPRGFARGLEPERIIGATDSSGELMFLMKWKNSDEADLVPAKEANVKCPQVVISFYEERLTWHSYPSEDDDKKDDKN

- Kd [1]: 35 µM
- Kd [2]: 8.3 µM
Substance: HP1α (from UniProt P45973)

- Kd [3]: 5.8 µM
Substance: HP1β (from UniProt P83916)

- Kd [4]: 12 µM
Substance: HP1γ (from UniProt Q13185)
